Experimental data reported in US20170218072A1.

Key:
HER2ex. [1] = molecular target: HER2ex. (UniProt P04626); test: SPR (Biacore X100); single cycle method, 0.05% Tween20-PBS, immobilized full-Ab
HER2ex. [2] = molecular target: HER2ex. (UniProt P04626); test: SPR (Biacore X100); multi-cycle method, 0.05% Tween20-PBS; conditions: scFv
HER2ex. [3] = molecular target: HER2ex. (UniProt P04626); test: SPR (Biacore X100); multi-cycle method, 0.005% Tween20-PBS; conditions: scFv

| Kd (HER2ex. [1]) | Kd (HER2ex. [2]) | Kd (HER2ex. [3]) | Substance |
| --- | --- | --- | --- |
| 3.56 nM |  |  | Trastuzumab full-body Ab |
|  | 0.0947 nM | 0.256 nM | Trastuzumab scFv |
